Positions count from the first letter of the chain named. In names and notes the source's numbering stands. No end group written: not given here. *: point of attachment. FITC = O=C1OC2(c3ccc(O)cc3Oc3cc(O)ccc32)c2ccc(NC(=S)*)cc21; Ahx = NCCCCCC(=O)O
B1: StmE L73A (natural protein)
chain: MRPNVQIVSRDGDNFVLNLRNGEYWHLNSSAYTMLTRIADGETVDEVARDISAATSAPEQTVRDDLTEAVDQLRKAKLVEVRHS
B2: TbtG wild-type (enzyme)
chain: MSDALAAAIIGAGLLADELAAAFRPYGEVIRLDEVERAETEAHRLRALVMACDGWDTSIYRETRERCRRLGIPWLPVRTEHGIAVIGPLERPGEPGCAHCFELRRERARPDAAAYRAILNHHGPELAKRPSPYLDELAAATIAALGVRMIDQGSGCHVWYVRLNGLTVERHAFLPEPLCPECGSLPMDDRDSAVIVLRSQPKRAPDDYRTRDIVDELDALVADYVDGESGLIRPLVRDTQGGLVIAGAMLPLRFAGGSEPGVGRTRGYRTSEVTAILEALERWGGVEPGGKRTVIRAAFRDIAADALDPRTLGVHSPEAYAAEDFPFRPFTEDEETEWVWGYSFARRSPILVPETVAYYYVHRDRPRQERPFLYEISNGCALGSGMEEAILYGILEVVERDAFLMTWYGRLGVPRIDLDSAKNRMVPLQAAAISAETGYRIEVYDTTMEHGIPSVWALAIRGGEEPTAAPRPRMVCAAAAHLDPEQAVLSALSELGPLLADLLRRYPDEAERARRMVDDPGLVTTMHDHSTLYGADEAFGRLEFLTGTASTRDLAAMRESTVAFRSADLRDDLLEVIGRILAEGMDVIVVDQTTPEHRVHGFTCVKVLIPGMIPMTFGHRNRRLDGLTRPLVIPYRLGYRPAPLTPEALNPHPHPFP
B3: TbtF wild-type (natural protein)
chain: MIPARPVLTPGVRYAPTSDGVAFLTRDGIVSITGVSIHRWIDRIAPHLTGERSVAELTDGLAPERRAFVLRLLQALADRGLIIDAAGGREPRLERGTACALHVTETCGPYRESLPKLARSLADALTRAGLDVRLASASEPCDPERCHALVHLTAADEVGLAAAERLDRLSERWGVPIAHVVVWGGEIWRTEAGTVGEDGLPLAAGWRRLTALRPDTEERVPISPTAAVVVAGQVAADVRDRLTTATRAGRRPRLHVVEPARLTCRAHHFIPHFHTMPLTGDAPLAEELTEEEFSRRAAALMDDRTGVFTEIAEGDFGQLPLHVAVTTVADPVGLLGPAGDRPRVIGVGPDFATARYRTARAAIALYGLLAVDPRRLVDADGEPLAGPRTSAAELEDLLGRIRAGGLPAFVRAEDVRGGPPRLLPASSVFPFATARALLAGTVPTGTAVGYSEEGALRAALLDHCRERTLADLASRRVARLTPDTAPSDPVTARYLAFLRAIGLPFDVLDATGPLGVPVYVGVLDGRVVAAEAGASPGEAFRSVLEGILRGLQGIPAARSLPDTLPPVLPEAMAVPDGSPLSAEALAAALARAGLSVSVVRLDHDRRVHALIPHCVRVMVTGEESAHV
B4: TbtF R79A (natural protein)
chain: B3 chain with R79A
B5: FITC-labeled TbtA leader peptide (peptide)
chain: SRRGSMLNLSDLPMDVFEMADSGMEVESLTAGHGMPEVGA
modifications: not fully specified (N-terminus); also: FITC label

What was measured:
Experiment in all cases: fluorescence polarisation
HcaF F35A = HcaF F35A (Bacillus sp. Al Hakam)
HcaF wild-type = HcaF wild-type (Bacillus sp. Al Hakam)
HcaF D21A = HcaF D21A (Bacillus sp. Al Hakam)
[1] = target: FITC-labeled StmA leader peptide (Streptomonospora alba, N-terminal FITC-Ahx (fluorescein isothiocyanate with an amino hexyl linker))
[2] = target: B5
CurC wild-type = CurC wild-type (Corynebacterium urealyticum DSM 7109)
TbtF L24A = TbtF L24A (Thermobispora bispora)
TbtF V30A = TbtF V30A (Thermobispora bispora)
TbtF Q74A = TbtF Q74A (Thermobispora bispora)
TbtF R71A = TbtF R71A (Thermobispora bispora)
TbtF/G = TbtF/G (Thermobispora bispora)
TbtF F68A = TbtF F68A (Thermobispora bispora)
TbtF D19A = TbtF D19A (Thermobispora bispora)

## SGSMNQFQQELQSLNLNDYQTGNVVYWDPQQSQYPYYYIQDDAR (not fully specified (N-terminus); also: FITC label) [FITC-labeled HcaA leader peptide]
HcaF F35A
  Kd: 1700 nM
HcaF wild-type
  Kd: 89 nM
HcaF D21A
  Kd: 130 nM

## B1
[1]
  Kd: > 10000 nM

## B2
[2]
  Kd: > 10000 nM

## B3
[2]
  Kd: 66 nM

## B4
[2]
  Kd: 79 nM

## {FITC-Ahx}-GMSTLISKLPPAVSTDSSKIVSEVQAFEPT [FITC-labeled CurA leader]
CurC wild-type
  Kd: 7000 nM

## B5
TbtF L24A
  Kd: 65 nM
TbtF V30A
  Kd: 210 nM
TbtF Q74A
  Kd: 49 nM
TbtF R71A
  Kd: 190 nM
TbtF/G
  Kd: 66 nM
TbtF F68A
  Kd: 7700 nM
TbtF D19A
  Kd: 57 nM
